Test results published in paper PMC10836093, “Ensemble-based design of tau to inhibit aggregation while preserving biological activity” (Research Square, 2024).

Target: the molecule itself
Experiment: ThT fluorescence aggregation assay; peptide alone, 50-800 μM in 1X PBS pH 7.4, 1 mM DTT, 25 μM ThT, 37 °C, no inducer; self-assembly into amyloid fibrils, t1/2max from fitted curves

B1: P301S R2R3_(294-311) peptide (peptide)
peptide: Ac-KDNIKHVSGGGSVQIVYK-NH2
notes: also called mutant 4R fragment; source: synthetic peptide (Genscript, >95% purity), disaggregated in TFA
  t1/2max of ThT aggregation at 100 μM: 52 ± 14 h
  t1/2max of ThT aggregation at 800 μM: 7.5 ± 1 h

B2: WT R2R3_(294-311) peptide (peptide)
peptide: Ac-KDNIKHVPGGGSVQIVYK-NH2
notes: also called 4R-derived peptide; source: synthetic peptide (Genscript, >95% purity), disaggregated in TFA
  t1/2max of ThT aggregation at 800 μM: 46 ± 13 h
